B1: Brachypodium distachyon BdTyrAnc (non-canonical TyrA), SEQ ID NO: 37, recombinant (Brachypodium distachyon) (protein)
chain: AEQEQKQEVAAPCRDAYEKPAVWNTTAADSAEAAPPLRVGIIGFGNFGQFIARGIQRQGHAVLATSRSDYSAYCSAQGIRYFRSLEALCEEQPNVLLVCSSILSTEAVVRAIPFHKLRSDTIVADVLSVKQFPRNLLLEILPPEFGIVCTHPMFGPESGKHGWSTLPFVYDKVRLADKGDQKANCGQFLSIFEGEGCRMVEMSCAEHDRHAAASQFITHTIGRVLAQLNLKSTPINTKGFEALLKLTENTVSDSFDLYYGLFMYNVNATEQIEKLERAFEKVKQMLYGRLHDILRKQIVERVPI
notes: from cDNA
B2: Brachypodium distachyon BdTyrA1, SEQ ID NO: 33, recombinant (Brachypodium distachyon) (protein)
chain: MLSSSTSHLRLHQPSRAARRLPPAPAPATYQFQSPASRRSLPAPAVGARIRPNRGGTIRAIDAAQPFDYESRAAGLLEERQRLKIAIVGFGNFGQFLARTFARQGHTLLAHSRSDHSSLAASLGAAYFQDPHDLCECHPDVVLLATSILSAEAVLRSLPVHRLRRNTLFVDVLSVKEFPKNLLLTTLPEGFDIICTHPMFGPESARDGWDGLPFVFDKVRVGDCPARRARADTFLNIFEREGCRMVEMSCAEHDAHAAETQFLTHTVGRMLATLELQSTPINTKGYETLLRLVDNTCSDSFDLYNGLFMYNKNSTDLLNRLESAMDSVKKRLFDGLHDVLRKQLFEGKASPPATSSNTKSDVHRGQLLLEGKASPAPLNANNTTVRN
notes: from genomic DNA
B3: Brachypodium distachyon BdTyrA2, SEQ ID NO: 35, recombinant (Brachypodium distachyon) (protein)
chain: RATDAARQPFDHLSGAVKSEEGTHPRLKIAIVGFGNYGQFLARTMVQQGHTVLAHSRSDHSAAAATIGASFYADAHDLCECQPDVVLLSTSILSAEAVLRSLPVHRFRRSTLFADVLSVKEFPKNLLLAYLPGDFDVICTHPMFGPESARDGWAGLPFVFDEVRVGDGPARRARADAFLDVFAREGCRMVEMSCAEHDAHAAETQFLTHTVGRMLATLDLKSTPINTKGYETLLRLVDNTCSDSFDLYNGLFMYNNNATELLHRLESAMDSVKRRLFDGLHEVLRRQLFEGSPPLNRDSSFPAESSLDDGR
B4: Sorghum bicolor SbTyrAnc (non-canonical TyrA), SEQ ID NO: 43, recombinant (Sorghum bicolor) (protein)
chain: ALTSPSPVEQHLQAVVPCHGISDPPAASSAAAVPAAPLRVGIVGFGNFGQFIAGGLQRQGHVVLAASRSDYSVYCASHGIRFFRSVDALCEEQPDVLLICSSILSTEGVVRAIPFRKLRHDTIVADVLSVKEFPRNLLLEVLPPGFGIICTHPMFGPESGKHGWGKLPFVFDKVRVAEDGDQAAKCDQFLSIFEQEGCRMVEMSCAEHDRYAAGSQFITHTIGRVLSQLNLKSTPINTKGYETLLQLTKNTVSDSFDLYYGLFMYNVNATEQLDKLEMAFEKVRQMLSGRLHDFIRKQIVERAAHVPADPSGKLANGLSSSPAARLL
notes: from cDNA
B5: Sorghum bicolor SbTyrA1, SEQ ID NO: 39, recombinant (Sorghum bicolor) (protein)
chain: MLSSSTSTLRLHQPTRPHRHHPPAPAAGGATHLASPRRWRGHAPGASSPPALRARAQRIRALDAAQPFDFESRAAGLLEERQRLKIAIVGFGNFGQFLARTFARQGHTLLAHSRTDHSALASTLGASFFTDPHDLCECHPDVVLLATSILSAEAVLRSLPVHRLRRNTLFVDVLSVKEFPRNLLLSSLPPDFDVICTHPMFGPESARDGWDGLPFVFDKVRVGDCPARRARAEAFLNIFEREGCRMVEMSCAEHDAHAAETQFLTHTVGRMLAMLELRSTPINTKGYETLLRLVDNTCSDSFDLYNGLFMYNKNSTELLNRVEWAMDSVKKKLFDGLHDVLRKQLFEGSPHAPNVSSSNVRK
notes: from genomic DNA
B6: Sorghum bicolor SbTyrA2, SEQ ID NO: 41, recombinant (Sorghum bicolor) (protein)
chain: ATGASQPLGTDSNEEVEKVEEQPQPPPRLKIAVVGFGTFGQFLARTLVAQGHTVLAHSRSDHSAAAASMGALFFSDPHDLCECHPDVVLLATSILSAESVVRSLPLHRLRRDTLFADVLSVKEFPKRLLLGLLPEEMDILCTHPMFGPESARAGWAGLPFMFDKVRVRDTVPARRARAEAFLDVFAQEGCRMVEMSCAEHDAHAAETQFLTHTVGRMLAALELRATPIDTRGYETLLRLVENTCSDSFDLYNGLFMYNNNSTELLNRLDWAMDAVKRRLFDGLHDVLRRQLFHVGEVEGEAERMEELAVVPGGGPDTDDDGCATATATSIKSGEENN
notes: from genomic DNA

Each protein was assayed on N[C@@H](CC1(C(=O)O)C=CC(O)C=C1)C(=O)O (assay: TyrA arogenate dehydrogenase kinetics and tyrosine inhibition (340 nm)). Settings: other: NADP^+, pH 7.5, 37° C.
Format: biochemical, Brachypodium distachyon
From the text: (§1) Next, to study the biochemical properties of grass TyrA enzymes, we generated and characterized recombinant purified TyrA proteins from Brachypodium (BdTyrA) and Sorghum (SbTyrA), two distantly related grass species^43, 44. Whereas TyrA enzymes from dicot plants are generally NADP^+-dependent arogenate dehydrogenases^20, 39, 45, except for NADP^+-prephenate dehydrogenases in the legume family^40, 46, previous reports on the substrate preference of grass TyrA enzymes are inconclusive^17, 19. […] NAD^+-prephenate dehydrogenase activity was absent in all cases, ruling out a significant contamination of the enzyme preparations with the TyrA enzyme from E. coli^47.48.

| Protein | Km | kcat | kcat/Km |
| --- | --- | --- | --- |
| B1 | 130 ± 40 µM | 76.5 ± 5.5 s⁻¹ | 580000 ± 24300 M⁻¹ s⁻¹ |
| B2 | 1410 ± 240 µM | 5.2 ± 0.8 s⁻¹ | 3600 ± 800 M⁻¹ s⁻¹ |
| B3 | 450 ± 40 µM | 18.5 ± 0.6 s⁻¹ | 41200 ± 1700 M⁻¹ s⁻¹ |

Substrate: N[C@@H](CC1(C(=O)O)C=CC(O)C=C1)C(=O)O
Test: as above
Format: biochemical, Sorghum bicolor
Settings: other: NADP^+, pH 7.5, 37° C.
Remark: another data set of the same source
From the text: as §1

| Protein | Km | kcat | kcat/Km |
| --- | --- | --- | --- |
| B4 | 220 ± 60 µM | 73.5 ± 18.2 s⁻¹ | 338000 ± 19500 M⁻¹ s⁻¹ |
| B5 | 570 ± 150 µM | 2.9 ± 0.6 s⁻¹ | 5300 ± 800 M⁻¹ s⁻¹ |
| B6 | 2130 ± 530 µM | 38.5 ± 8.8 s⁻¹ | 18100 ± 9600 M⁻¹ s⁻¹ |

— US20250115926A1, “DEREGULATED DHS AND TYRA ENZYMES OF GRASSES ENABLE EFFICIENT PRODUCTION OF BOTH TYROSINE AND PHENYLALANINE” (priority 2023, published 2025)
